Reference: US20220018856A1

Columns and labels:
[1] = target: phosphorylated tau peptide antigen in which threonine at position 181 in tau protein had been phosphorylated; assay: sandwich CLEIA, AT270 capture; count at 40 pg/mL over count at 0 pg/mL
[2] = target: phosphorylated tau peptide antigen in which threonine at position 181 in tau protein had been phosphorylated; assay: sandwich CLEIA (Lumipulse G), capture on AT270 magnetic particles, ALP-SA label; antigen 40 pg/mL
[3] = target: phosphorylated tau peptide antigen in which threonine at position 181 in tau protein had been phosphorylated; assay: sandwich CLEIA (Lumipulse G), capture on AT270 magnetic particles, ALP-SA label; antigen 100 pg/mL
[4] = target: phosphorylated tau peptide antigen in which threonine at position 181 in tau protein had been phosphorylated; assay: sandwich CLEIA (Lumipulse G), capture on AT270 magnetic particles, ALP-SA label; antigen 200 pg/mL
[5] = target: phosphorylated tau peptide antigen in which threonine at position 181 in tau protein had been phosphorylated; assay: sandwich CLEIA (Lumipulse G), capture on AT270 magnetic particles, ALP-SA label; antigen 400 pg/mL
[6] = target: phosphorylated tau peptide antigen in which threonine at position 181 in tau protein had been phosphorylated; assay: sandwich CLEIA, AT270 capture; S/N (40/0 pg/mL) against the mixture of ALP-labeled single antibodies
[7] = target: phosphorylated tau peptide antigen in which threonine at position 181 in tau protein had been phosphorylated; assay: sandwich CLEIA (Lumipulse G), capture on AT270 magnetic particles, ALP-SA label; antigen 0 pg/mL (blank)
[8] = target: tau protein of the calibrator reagent for measuring total tau protein (LUMIPULSE G Total Tau Calibrators set, Fujirebio) (UniProt P10636); assay: sandwich CLEIA, capture on AT120 magnetic particles, SA-ALP detection; calibrator 60 pg/mL
[9] = target: tau protein of the calibrator reagent for measuring total tau protein (LUMIPULSE G Total Tau Calibrators set, Fujirebio) (UniProt P10636); assay: sandwich CLEIA, capture on AT120 magnetic particles, SA-ALP detection; calibrator 150 pg/mL
[10] = target: tau protein of the calibrator reagent for measuring total tau protein (LUMIPULSE G Total Tau Calibrators set, Fujirebio) (UniProt P10636); assay: sandwich CLEIA, capture on AT120 magnetic particles, SA-ALP detection; calibrator 420 pg/mL
[11] = target: tau protein of the calibrator reagent for measuring total tau protein (LUMIPULSE G Total Tau Calibrators set, Fujirebio) (UniProt P10636); assay: sandwich CLEIA, capture on AT120 magnetic particles, SA-ALP detection; calibrator 900 pg/mL
[12] = target: tau protein of the calibrator reagent for measuring total tau protein (LUMIPULSE G Total Tau Calibrators set, Fujirebio) (UniProt P10636); assay: sandwich CLEIA, capture on AT120 magnetic particles, SA-ALP detection; calibrator 2250 pg/mL
[13] = target: tau protein of the calibrator reagent for measuring total tau protein (LUMIPULSE G Total Tau Calibrators set, Fujirebio) (UniProt P10636); assay: sandwich CLEIA, capture on AT120 magnetic particles, SA-ALP detection; calibrator 0 pg/mL (blank)
[14] = target: tau protein of the calibrator reagent for measuring total tau protein (LUMIPULSE G Total Tau Calibrators set, Fujirebio) (UniProt P10636); assay: sandwich CLEIA, AT120 capture, SA-ALP detection; calculated count at 600 pg/mL over count at 0 pg/mL
[15] = target: tau protein in samples obtained by diluting a cerebrospinal fluid specimen with buffer (UniProt P10636); assay: sandwich CLEIA, AT120 capture, SA-ALP detection; diluted cerebrospinal fluid sample LoB, mean of n=10
[16] = target: tau protein in samples obtained by diluting a cerebrospinal fluid specimen with buffer (UniProt P10636); assay: sandwich CLEIA, AT120 capture, SA-ALP detection; diluted cerebrospinal fluid sample LoQ 1, mean of n=10
[17] = target: tau protein in samples obtained by diluting a cerebrospinal fluid specimen with buffer (UniProt P10636); assay: sandwich CLEIA, AT120 capture, SA-ALP detection; diluted cerebrospinal fluid sample LoQ 2, mean of n=10
[18] = target: tau protein in samples obtained by diluting a cerebrospinal fluid specimen with buffer (UniProt P10636); assay: sandwich CLEIA, AT120 capture, SA-ALP detection; diluted cerebrospinal fluid sample LoQ 3, mean of n=10
[19] = target: tau protein in samples obtained by diluting a cerebrospinal fluid specimen with buffer (UniProt P10636); assay: sandwich CLEIA, AT120 capture, SA-ALP detection; diluted cerebrospinal fluid sample LoQ 4, mean of n=10
[20] = target: tau protein in samples obtained by diluting a cerebrospinal fluid specimen with buffer (UniProt P10636); assay: sandwich CLEIA, AT120 capture, SA-ALP detection; diluted cerebrospinal fluid sample LoQ 5, mean of n=10
[21] = target: phosphorylated tau peptide antigen in which threonine at position 181 in tau protein had been phosphorylated; assay: sandwich CLEIA, AT270 capture; count at 4.5 pM over count at 0 pM
[22] = target: phosphorylated tau peptide antigen in which threonine at position 181 in tau protein had been phosphorylated; assay: sandwich CLEIA (Lumipulse G), capture on AT270 magnetic particles; antigen 9 pM
[23] = target: phosphorylated tau peptide antigen in which threonine at position 181 in tau protein had been phosphorylated; assay: sandwich CLEIA (Lumipulse G), capture on AT270 magnetic particles; antigen 18 pM
[24] = target: phosphorylated tau peptide antigen in which threonine at position 181 in tau protein had been phosphorylated; assay: sandwich CLEIA (Lumipulse G), capture on AT270 magnetic particles; antigen 36 pM
[25] = target: phosphorylated tau peptide antigen in which threonine at position 181 in tau protein had been phosphorylated; assay: sandwich CLEIA (Lumipulse G), capture on AT270 magnetic particles; antigen 72 pM
[26] = target: phosphorylated tau peptide antigen in which threonine at position 181 in tau protein had been phosphorylated; assay: sandwich CLEIA (Lumipulse G), capture on AT270 magnetic particles; antigen 150 pM
[27] = target: phosphorylated tau peptide antigen in which threonine at position 181 in tau protein had been phosphorylated; assay: sandwich CLEIA (Lumipulse G), capture on AT270 magnetic particles; antigen 4.5 pM
[28] = target: tau protein of the calibrator reagent for measuring total tau protein (LUMIPULSE G Total Tau Calibrators set, Fujirebio) (UniProt P10636); assay: sandwich CLEIA, AT120 capture; calculated count at 600 pg/mL over count at 0 pg/mL
[29] = target: phosphorylated tau peptide antigen in which threonine at position 181 in tau protein had been phosphorylated; assay: sandwich CLEIA (Lumipulse G), capture on AT270 magnetic particles; antigen 0 pM (blank)
[30] = target: tau protein of the calibrator reagent for measuring total tau protein (LUMIPULSE G Total Tau Calibrators set, Fujirebio) (UniProt P10636); assay: sandwich CLEIA, AT120 capture; S/N (600/0 pg/mL) against BT2-bio + HT7-bio with SA-ALP
[31] = target: tau protein in samples obtained by diluting a cerebrospinal fluid specimen with buffer (UniProt P10636); assay: one-step sandwich CLEIA, AT120 capture; diluted cerebrospinal fluid sample LoB, mean of n=10
[32] = target: tau protein in samples obtained by diluting a cerebrospinal fluid specimen with buffer (UniProt P10636); assay: one-step sandwich CLEIA, AT120 capture; diluted cerebrospinal fluid sample LoQ 1, mean of n=10
[33] = target: tau protein in samples obtained by diluting a cerebrospinal fluid specimen with buffer (UniProt P10636); assay: one-step sandwich CLEIA, AT120 capture; diluted cerebrospinal fluid sample LoQ 2, mean of n=10
[34] = target: tau protein in samples obtained by diluting a cerebrospinal fluid specimen with buffer (UniProt P10636); assay: one-step sandwich CLEIA, AT120 capture; diluted cerebrospinal fluid sample LoQ 3, mean of n=10
[35] = target: tau protein in samples obtained by diluting a cerebrospinal fluid specimen with buffer (UniProt P10636); assay: one-step sandwich CLEIA, AT120 capture; diluted cerebrospinal fluid sample LoQ 4, mean of n=10
[36] = target: tau protein in samples obtained by diluting a cerebrospinal fluid specimen with buffer (UniProt P10636); assay: one-step sandwich CLEIA, AT120 capture; diluted cerebrospinal fluid sample LoQ 5, mean of n=10
[37] = target: tau protein of the calibrator reagent for measuring total tau protein (LUMIPULSE G Total Tau Calibrators set, Fujirebio) (UniProt P10636); assay: one-step sandwich CLEIA (Lumipulse G), capture on AT120 magnetic particles; calibrator 101 pg/mL
[38] = target: tau protein of the calibrator reagent for measuring total tau protein (LUMIPULSE G Total Tau Calibrators set, Fujirebio) (UniProt P10636); assay: one-step sandwich CLEIA (Lumipulse G), capture on AT120 magnetic particles; calibrator 213 pg/mL
[39] = target: tau protein of the calibrator reagent for measuring total tau protein (LUMIPULSE G Total Tau Calibrators set, Fujirebio) (UniProt P10636); assay: one-step sandwich CLEIA (Lumipulse G), capture on AT120 magnetic particles; calibrator 667 pg/mL
[40] = target: tau protein of the calibrator reagent for measuring total tau protein (LUMIPULSE G Total Tau Calibrators set, Fujirebio) (UniProt P10636); assay: one-step sandwich CLEIA (Lumipulse G), capture on AT120 magnetic particles; calibrator 1037 pg/mL
[41] = target: tau protein of the calibrator reagent for measuring total tau protein (LUMIPULSE G Total Tau Calibrators set, Fujirebio) (UniProt P10636); assay: one-step sandwich CLEIA (Lumipulse G), capture on AT120 magnetic particles; calibrator 2639 pg/mL
[42] = target: phosphorylated tau peptide antigen in which threonine at position 181 in tau protein had been phosphorylated; assay: sandwich CLEIA, AT270 capture; S/N (4.5 pM/0 pM) against the ALP-labeled single antibody mixtures
[43] = target: tau protein of the calibrator reagent for measuring total tau protein (LUMIPULSE G Total Tau Calibrators set, Fujirebio) (UniProt P10636); assay: one-step sandwich CLEIA (Lumipulse G), capture on AT120 magnetic particles; calibrator 0 pg/mL (blank)

Substance: BSA linker hybrid conjugate 1 labeled with ALP (BT2 Fab′ and HT7 Fab′ on maleimidated BSA, biotinylated, with streptavidin-conjugated alkaline phosphatase) (from UniProt P02769 25-607)
- S/N (40/0) [1]: 10
- Count value [2]: 3110 count
- Count value [3]: 7390 count
- Count value [4]: 14400 count
- Count value [5]: 28700 count
- S/N ratio against the mixed conjugate reaction solution [6]: 9 fold
- Count value [7]: 312 count

Substance: BSA linker hybrid conjugate 2 labeled with ALP (BT2 Fab′ and HT7 Fab′ on biotinylated and maleimidated thiolated BSA, with streptavidin-conjugated alkaline phosphatase) (from UniProt P02769 25-607)
- S/N (40/0) [1]: 14.3
- Count value [2]: 3970 count
- Count value [3]: 10100 count
- Count value [4]: 19300 count
- Count value [5]: 37300 count
- S/N ratio against the mixed conjugate reaction solution [6]: 13 fold
- Count value [7]: 278 count

Substance: antibody mixture of biotinylated monoclonal antibody BT2 and biotinylated monoclonal antibody HT7, detected with streptavidin-labeled ALP
- Count value [8]: 514 count
- Count value [9]: 817 count
- Count value [10]: 2670 count
- Count value [11]: 7070 count
- Count value [12]: 38100 count
- Count value [13]: 409 count
- S/N (600/0) [14]: 10
- Count value [15]: 408 count
- Count value [16]: 455 count
- Count value [17]: 585 count
- Count value [18]: 641 count
- Count value [19]: 694 count
- Count value [20]: 858 count

Substance: hybrid conjugate labeled with alkaline phosphatase (BT2 Fab′ fragment and HT7 Fab′ fragment coupled to maleimidated ALP)
- S/N (4.5/0) [21]: 71.7
- Count value [22]: 73800 count
- Count value [23]: 153000 count
- Count value [24]: 297000 count
- Count value [25]: 576000 count
- Count value [26]: 1.35e+06 count
- Count value [27]: 42600 count
- S/N (600/0) [28]: 60.6
- Count value [29]: 595 count
- S/N ratio against the mixture of the labeled antibodies [30]: 6 fold
- Count value [31]: 728 count
- Count value [32]: 982 count
- Count value [33]: 1160 count
- Count value [34]: 1600 count
- Count value [35]: 1970 count
- Count value [36]: 2380 count
- Count value [37]: 9280 count
- Count value [38]: 17600 count
- Count value [39]: 50400 count
- Count value [40]: 83600 count
- Count value [41]: 211000 count
- S/N ratio against the ALP-labeled Fab′ fragment mixture [42]: 6 fold
- Count value [43]: 744 count
